Measured values reported in PMC7617692, “Structural evolution of fibril polymorphs during amyloid assembly” (Cell, 2023).
Bridge positions count the residues as written; N and C are the ends. Ends that are not written are not given here.

Target: the molecule itself
Test: cryo-EM structure; fibrils grown quiescently in glass vials, 30 uM peptide, 20 mM ammonium acetate pH 6.8, room temperature; sampled at 3 weeks (lag phase), undiluted; helical reconstruction; repeated with a second reaction

B1: human islet amyloid polypeptide S20G variant (IAPP-S20G) (peptide)
chain: KCNTATCATQRLANFLVHSGNNFGAILSSTNVGSNTY-NH2
modifications: disulfide 2-7; N-terminus assumed
SMILES: CC[C@H](C)[C@H](NC(=O)[C@H](C)NC(=O)CNC(=O)[C@H](Cc1ccccc1)NC(=O)[C@H](CC(N)=O)NC(=O)[C@H](CC(N)=O)NC(=O)CNC(=O)[C@H](CO)NC(=O)[C@H](Cc1c[nH]cn1)NC(=O)[C@@H](NC(=O)[C@H](CC(C)C)NC(=O)[C@H](Cc1ccccc1)NC(=O)[C@H](CC(N)=O)NC(=O)[C@H](C)NC(=O)[C@H](CC(C)C)NC(=O)[C@H](CCCNC(=N)N)NC(=O)[C@H](CCC(N)=O)NC(=O)[C@@H](NC(=O)[C@H](C)NC(=O)[C@@H]1CSSC[C@H](NC(=O)[C@@H](N)CCCCN)C(=O)N[C@@H](CC(N)=O)C(=O)N[C@@H]([C@@H](C)O)C(=O)N[C@@H](C)C(=O)N[C@@H]([C@@H](C)O)C(=O)N1)[C@@H](C)O)C(C)C)C(=O)N[C@@H](CC(C)C)C(=O)N[C@@H](CO)C(=O)N[C@@H](CO)C(=O)N[C@H](C(=O)N[C@@H](CC(N)=O)C(=O)N[C@H](C(=O)NCC(=O)N[C@@H](CO)C(=O)N[C@@H](CC(N)=O)C(=O)N[C@H](C(=O)N[C@@H](Cc1ccc(O)cc1)C(N)=O)[C@@H](C)O)C(C)C)[C@@H](C)O
notes: islet amyloid polypeptide (IAPP, amylin), human, 37-residue hormone, familial early-onset T2D variant S20G; Assembles into amyloid fibrils of two, three or four protofilaments; the number of chains in a fibril is open-ended; Purity >95% by analytical HPLC, mass 3873.3 Da; also called hIAPP-S20G; S20G-IAPP; source: synthetic peptide (Fmoc solid phase, oxidised, reverse-phase HPLC purified)
- binding result: binds
